Assay results reported in patent publication US20190276523A1.

B1: HuG6.3 (format not stated, Octet-Red assay) (antibody, V domains shown)
VH: QVQLVQSGAEVVKPGASVKVSCKASGYTFTSYWMHWVKQAPGQGLEWIGAVSPGNSDTSYNEKFKGKATLTVDKSASTAYMELSSLRSEDTAVYYCTRSRYGNNALDYWGQGTLVTVS
VL: DIQLTQSPSSLSASVGDRVTITCRASQGISSNIVWLQQKPGKAPKGLIYHGTNLESGVPSRFSGSGSGTDYTLTISSLEPEDFATYYCVQYSQFPPTFGQGTKLEIK
B2: MuG6 antibody (format in the CDC and ADCC assays not stated) (antibody, V domains shown)
VH: QVQLQQSGTVLARPGASVKMSCKASGYTFTSYWMHWVKQRPGQGLEWIGAVSPGNSDTSYNQKFKGKATLTAVTSTSTAYMEFSSLTNEDSAVYYCTRSRYGNNALDYWGQGTTVTVSS
VL: DIELTQSPSSMSVSLGDTVNITCRASQGISSNIVWLQQKPGKSFKGLIYHGTNLEDGVPSRFSGSGSGADYSLTISSLESEDFADYYCVQYSQFPPTFGSGTKLELK
modifications: APC-conjugated in the flow cytometry of FIG.11C

Experiments:
[1] = target: F43 scFv-Fc (human) [IgG part: P01857]; assay: Octet-Red biolayer interferometry, SA sensor tips, 2:1 model; reference pair HuG6.3 and D80 scFv-Fc
[2] = target: F70 scFv-Fc-CD28-gp41 expressed on 293T cells (human; HIV-1) [IgG part: P01857]; assay: flow cytometry, 293T-F70 cells stained with APC-conjugated MuG6
[3] = target: F43 scFv-Fc-CD28-gp41 expressed on 293T cells (human; HIV-1) [IgG part: P01857]; assay: flow cytometry, 293T-F43 cells stained with APC-conjugated MuG6
[4] = target: F70 scFv-Fc-CD28-gp41 expressed on 293T cells (human; HIV-1) [IgG part: P01857]; assay: cell-based or functional assay
[5] = target: F43 scFv-Fc-CD28-gp41 expressed on 293T cells (human; HIV-1) [IgG part: P01857]; assay: cell-based or functional assay
[6] = target: D80 scFv-Fc-CD28-gp41 expressed on 293T cells (human; HIV-1) [IgG part: P01857]; assay: cell-based or functional assay
[7] = target: 11A scFv-Fc-CD28-gp41 expressed on 293T cells (human; HIV-1) [IgG part: P01857]; assay: flow cytometry, 293T-11A cells stained with APC-conjugated MuG6
[8] = target: D80 scFv-Fc-CD28-gp41 expressed on 293T cells (human; HIV-1) [IgG part: P01857]; assay: flow cytometry, 293T-D80 cells stained with APC-conjugated MuG6

Row | Binder | fold increase in binding affinity compared to D80 scFv-Fc [1] [fold] | fold slower Koff compared to D80 scFv-Fc [1] [fold] | fold slower Kon compared to D80 scFv-Fc [1] [fold] | % of cells in Q2 (ZsGreen+, G6-id+) [2] [%] | % of cells in Q3 (ZsGreen-, G6-id+) [2] [%] | % of cells in Q2 (ZsGreen+, G6-id+) [3] [%] | % of cells in Q3 (ZsGreen-, G6-id+) [3] [%] | CDC, percent of target cells killed (LDH release, rabbit serum) (% of target cells killed) [4] | CDC, percent of target cells killed (LDH release, rabbit serum) (% of target cells killed) [5] | CDC, percent of target cells killed (LDH release, rabbit serum) (% of target cells killed) [6] | % of cells in Q3 (ZsGreen-, G6-id+) [7] [%] | % of cells in Q2 (ZsGreen+, G6-id+) [8] [%] | % of cells in Q3 (ZsGreen-, G6-id+) [8] [%]
1 | B1 | 50 | 600 | 3.5 |  |  |  |  |  |  |  |  |  | 
2 | B2 |  |  |  | 44 | 6.15 | 41.3 | 9.11 | 20 | 20 | 20 | 0.097 | 43.3 | 5.28
